The target in assay [1] is T1, human BCMA-Fc (human, UniProt Q02223 2-54, limits assumed).
T1 construct: Generated in-house; not shown: Fc portion of human IgG1
T1 sequence (looked up): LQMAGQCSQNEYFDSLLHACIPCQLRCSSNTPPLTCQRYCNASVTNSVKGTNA
The experiment in a line: SPR (Biacore 2000), FLAG-APRIL captured by anti-FLAG M2, receptor-Fc injected, single cycle kinetics, 1:1 fit. The protocol:
(§1) FIG. 10: Surface Plasmon Resonance sensorgrams to illustrate binding of TACI-Fc and BCMA-Fc to WT and R206E-APRIL. Sensorgrams of human (Panel A) and mouse (Panel B) receptors binding to WT and R206E-APRIL. Stepwise increments in the curves represent sequential injections of receptor at the following concentrations: […]. In some cases, no value for affinity was calculated due to a low binding response or high drift.
(§2) In order to further assess the binding properties of the mutants and to measure apparent affinities and kinetics of receptor binding, a Surface Plasmon Resonance based receptor binding assay was performed on a Biacore 2000 (GE Healthcare, Diegem, Belgium). Anti-FLAG-M2 monoclonal antibody (Sigma-Aldrich) was diluted at a concentration of 5 μg/ml in 10 mM sodium acetate pH 4.5 and covalently immobilized (approx 1500 RU) to a CM-5 sensor chip (GE Healthcare), using standard amine coupling chemistry according to manufacturer's guidelines (Amine coupling kit, GE Healthcare). The different FLAG-APRIL variants in the form of tissue culture supernatants were captured onto the chip via the FLAG-tag at 10 μl/minute for five minutes, giving capture levels ranging from 159 to 207 RU. As a reference lane, one of the flow cells was left free of soluble FLAG-APRIL, to control for any background binding. BCMA- or TACI-Fc were then injected for three minutes over all four flow cells at 30 μl/minutes at increasing concentrations (ranging from 1-50 nM) using the single cycle kinetics method at 25° C. Dissociation was monitored for five minutes. The resulting curves were fitted using a 1:1 Langmuir model using BIAevaluation software 4.1. For each combination of FLAG-APRIL and BCMA- or TACI-Fc, the apparent kₐ, kd and KD were calculated from a global fit of binding curves from at least three separate experiments. Non-specific binding in the reference cell was subtracted before curve fitting. Regeneration of the anti-FLAG antibody surface was carried out with a 10-minute injection at 30 μl/minute of a mixture of ⅓ volume of TBS pH 11.5, ⅓ volume of Ionic solution and ⅓ volume of water. The Ionic solution was comprised of KSCN (0.46 M), MgCl₂ (1.83 M), urea (0.92 M) and guanidine-HCl (1.83 M).

In assay [2] the target is T2, mouse BCMA-Fc (R&D Systems) (mouse; human, UniProt O88472 2-49, limits assumed).
T2 construct: Bought; also called mBCMA-Fc; murine BCMA-Fc; not shown: Fc portion of human IgG1
T2 chain (looked up): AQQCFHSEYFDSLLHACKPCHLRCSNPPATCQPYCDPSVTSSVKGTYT
The description is as above. The protocol:
as §1, §2

The target of assay [3] is T1, human BCMA-Fc. The experiment in a line: SPR (Biacore), affinities of R206E for BCMA-Fc and TACI-Fc compared. The protocol:
as §1
In order to further assess the binding properties of the mutants and to measure apparent affinities and kinetics of receptor binding, a Surface Plasmon Resonance based receptor binding assay was performed on a Biacore 2000 (GE Healthcare, Diegem, Belgium). Anti-FLAG-M2 monoclonal antibody (Sigma-Aldrich) was diluted at a concentration of 5 μg/ml in 10 mM sodium acetate pH 4.5 and covalently immobilized (approx 1500 RU) to a CM-5 sensor chip (GE Healthcare), using standard amine coupling chemistry according to manufacturer's guidelines (Amine coupling kit, GE Healthcare). […] Dissociation was monitored for five minutes. […] For each combination of FLAG-APRIL and BCMA- or TACI-Fc, the apparent kₐ, kd and KD were calculated from a global fit of binding curves from at least three separate experiments. […]
A general note: Surface plasmon resonance follows binding to a sensor surface in real time, without labels.

In assay [4] the target is T3, human TACI-Fc (human, UniProt O14836 2-160, limits assumed).
T3 construct: Generated in-house; not shown: Fc portion of human IgG1
T3 sequence (looked up): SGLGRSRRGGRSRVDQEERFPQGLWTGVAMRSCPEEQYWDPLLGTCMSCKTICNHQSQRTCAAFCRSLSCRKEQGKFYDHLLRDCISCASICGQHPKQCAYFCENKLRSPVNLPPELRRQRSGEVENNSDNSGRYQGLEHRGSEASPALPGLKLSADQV
The experiment in a line: SPR (Biacore 2000), FLAG-APRIL captured by anti-FLAG M2, receptor-Fc injected, single cycle kinetics, 1:1 fit; SPR (BIAcore), mean ± error of fits; weak but measurable binding. The protocol:
as §1
as §2, with “Regeneration of the anti-FLAG antibody surface was carried out with a 10-minute injection at 30 μl/minute of a mixture of ⅓ volume of TBS pH 11.5, ⅓ volume of Ionic solution and ⅓ volume of water. The Ionic solution was comprised of KSCN (0.46 M), MgCl₂ (1.83 M), urea (0.92 M) and guanidine-HCl (1.83 M).” left out

The target in assay [5] is T1, human BCMA-Fc. The experiment in a line: receptor-binding ELISA, human BCMA-Fc coated, doubling dilutions of conditioned medium [BCMA-Fc coating]. The protocol:
(§3) FIG. 2: Production and real binding properties of the APRIL mutants. (Panel A) Production of APRIL variants in conditioned medium by transient transfection of 293T cells. Supernatants (10 μl of each) were analyzed by anti-FLAG immunoblotting. Upper panel: mutants predicted to be selective for BCMA. Lower panel: mutants predicted to be selective for TACI. All mutants were checked more than three times following independent rounds of transfection to assess their expression. (Panels B and C) Receptor binding ELISA to compare binding of the predicted BCMA- and TACI-specific APRIL variants to human BCMA-Fc and TACI-Fc. Bars, from left to right, represent doubling dilutions of the conditioned media starting from undiluted media. Relevant APRIL variants are shown with dark grey bars, WT APRIL with black bars and other variants with light grey bars. This is representative of three separate experiments performed with independent APRIL-containing cell-conditioned media.
(§4) The relative binding of the variants to either BCMA or TACI, was tested using a binding ELISA. […] Bound APRIL was detected with 1 μg/ml of HRP-coupled anti-FLAG M2 and visualized with 2,2′-azino-bis(3-ethylbenzothiazoline-6-sulphonic acid (ABTS) (Sigma-Aldrich). The absorbance was read at 405 nm using a UV-VIS microplate reader (BioRad, Veenendaal, The Netherlands).
Background: In an ELISA, binding on a coated surface is turned into a signal by an enzyme label.

For assay [6], the target named is T4, mouse TACI-Fc (R&D Systems) (mouse; human, UniProt Q9ET35 5-129, limits assumed).
T4 construct: Bought; also called mTACI-Fc; murine TACI-Fc; not shown: Fc portion of human IgG1
T4 sequence (looked up): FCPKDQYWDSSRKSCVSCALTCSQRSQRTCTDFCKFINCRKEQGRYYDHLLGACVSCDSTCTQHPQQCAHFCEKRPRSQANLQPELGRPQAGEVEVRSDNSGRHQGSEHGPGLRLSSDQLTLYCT
The experiment in a line: receptor-binding ELISA, mouse TACI-Fc coated [TACI selective, Ms TACI-Fc coated]. The protocol: (§5) The relative binding of the variants to either BCMA or TACI, was tested using a binding ELISA. The following proteins were used: human BCMA-Fc, human TACI-Fc (both generated in-house), mouse BCMA-Fc (R&D Systems, Abingdon, UK), mouse TACI-Fc (R&D Systems); in all cases the Fc portion is from human IgG1. BCMA-Fc and TACI-Fc were coated on 96-well Nunc Maxisorp plates (Thermo Fischer Scientific, Roskilde, Denmark) at concentrations of 1 μg/ml and 2 μg/ml, respectively, in 0.5 M sodium bicarbonate buffer pH 9.5, overnight at 4° C. Plates were then blocked with 5% BSA for one hour at 37° C. Soluble APRIL variants in the form of tissue culture conditioned medium were then added to the plate for two hours at 37° C. Following APRIL binding, plates were washed three times with PBS, 0.05% TWEEN®20. Bound APRIL was detected with 1 μg/ml of HRP-coupled anti-FLAG M2 and visualized with 2,2′-azino-bis(3-ethylbenzothiazoline-6-sulphonic acid (ABTS) (Sigma-Aldrich). The absorbance was read at 405 nm using a UV-VIS microplate reader (BioRad, Veenendaal, The Netherlands).

The target in assay [7] is T2, mouse BCMA-Fc (R&D Systems). The experiment in a line: receptor-binding ELISA, mouse BCMA-Fc coated [TACI selective, Ms BCMA-Fc coated]. The protocol: as §5
For assay [8], the target named is T3, human TACI-Fc. The experiment in a line: receptor-binding ELISA, human TACI-Fc coated, doubling dilutions of conditioned medium [TACI-Fc coating]. The protocol: as §3, §4

B1: APRIL-R206E (FLAG-tagged soluble variant) (ligand)
chain: AVLTQKQKKQHSVLHLVPINATSKDDSDVTEVMWQPALRRGRGLQAQGYGVRIQDAGVYLLYSQVLFQDVTFTMGQVVSREGQGRQETLFRCIRSMPSHPDEAYNSCYSAGVFHLHQGDILSVIIPRARAKLNLSPHGTFLGFVKL
notes: Used as conditioned medium; also called R206E-APRIL; not shown: FLAG tag
What is called Kd is the free concentration of one partner at which half of the binding sites on the other are occupied at equilibrium, for simple one-to-one binding. For orientation: koff means the first-order rate constant of dissociation. Usually kon stands for the second-order rate constant of association. For the molecule B1, in the assay with human BCMA-Fc [1], the dissociation constant Kd was 0.46 nM, the dissociation rate constant (koff) came to 0.00015 s⁻¹ and the kon is 330000 M⁻¹ s⁻¹. In assay [2], the Kd is 0.095 nM, the koff is 0.00015 s⁻¹ and the on-rate (kon) came to 1.6e+06 M⁻¹ s⁻¹. In the assay with human BCMA-Fc [3], the “fold selectivity for BCMA over TACI (comparison of affinities)” value came to 25 fold. Also, in the assay with human TACI-Fc [4], the Kd turned out to be 11 nM, the off-rate (koff) came out at 0.01 s⁻¹ and the association rate constant (kon) turned out to be 2e+06 M⁻¹ s⁻¹.

B2: APRIL-R231A (FLAG-tagged soluble variant) (ligand)
chain: AVLTQKQKKQHSVLHLVPINATSKDDSDVTEVMWQPALRRGRGLQAQGYGVRIQDAGVYLLYSQVLFQDVTFTMGQVVSREGQGRQETLFRCIRSMPSHPDRAYNSCYSAGVFHLHQGDILSVIIPAARAKLNLSPHGTFLGFVKL
notes: also called receptor-dead R231A variant; not shown: FLAG tag
Take B2: the binding result is on record as “no binding (tested: undiluted conditioned medium)” with human BCMA-Fc [5], “no binding” in assay [6], “no binding” in assay [7] and “no binding (tested: undiluted conditioned medium)” with human TACI-Fc [8].

These data come from patent publication US20140178329A1 (INSTITUCIO CATALANA DE RECERCA I ESTUDIS AVANCATS ICREA, published 2014).
